Our source for the Kd values is publication doi:10.1101/2021.05.06.441297.

In general, Kd refers to the equilibrium constant for the complex coming apart. A low value points to higher affinity.

The assay concerns the target fluorescently labeled non-covalent analog of peptide 5 (UniProt P46937). The assay is described as follows: fluorescence polarisation.
Chain of UniProt P46937 (P46937 whole entry, looked up, tested part not stated): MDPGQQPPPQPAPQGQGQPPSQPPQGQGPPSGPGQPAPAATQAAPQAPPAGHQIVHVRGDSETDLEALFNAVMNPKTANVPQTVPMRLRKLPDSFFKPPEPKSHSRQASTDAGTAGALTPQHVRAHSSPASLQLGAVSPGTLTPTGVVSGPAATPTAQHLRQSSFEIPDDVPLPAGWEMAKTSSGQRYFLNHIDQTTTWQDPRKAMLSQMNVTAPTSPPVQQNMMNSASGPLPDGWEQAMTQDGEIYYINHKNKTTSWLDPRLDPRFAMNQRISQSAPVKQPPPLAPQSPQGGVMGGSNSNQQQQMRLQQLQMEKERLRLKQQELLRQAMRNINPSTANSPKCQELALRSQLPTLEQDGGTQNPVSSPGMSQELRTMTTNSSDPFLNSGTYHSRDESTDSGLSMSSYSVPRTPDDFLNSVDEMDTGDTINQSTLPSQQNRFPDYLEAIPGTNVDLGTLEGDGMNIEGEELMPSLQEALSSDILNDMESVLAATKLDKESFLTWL

In turn, “14-3-3σ full length (1-248) (natural protein)” had a Kd of 106 nM.
